In the supplement of paper PMC9170038:

Test system: MS2 coat protein
Experiment: apparent KD of MS2 coat protein; designed switch direction (-1 OFF switch, 1 ON switch): 1; higher = weaker reporter binding
Method in brief: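 For each design, the apparent KD is the median over clusters of curves fitted to normalised cluster fluorescence. Clusters held RNA switches with common flanks, transcribed on Illumina chips by stalled E. coli RNA polymerase. These were titrated with SNAP-549-labelled MS2 coat protein, doubling from 0.7 or 1.5 nM to 3 µM, without input, with 200 uM small-molecule ligand, or with an oligonucleotide input.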

[1] = input ligand: microRNA oligo, concentration not stated
[2] = Eterna round: R95, input ligand: FMN 200 uM
[3] = Eterna round: R95, input ligand: microRNA oligo, concentration not stated
[4] = Eterna round: R95, input ligand: none

Sequence: GGUCGGACUCACAUGAGGAUCACCCAUGUUCCGGAAACGGGAUAGGAUAUCUGUCCGAAAAGGUCAGAGAAGGGUCUACCGACC [Fiskers NG3ss - 55] (Eterna round: R96, puzzle: Same State NG 3)
- apparent KD of MS2 coat protein (input ligand: FMN 200 uM): 1050 nM
- apparent KD of MS2 coat protein [1]: 236 nM
- apparent KD of MS2 coat protein (input ligand: none): 519 nM

Sequence: GUGGUCAGACAUGAGGAUCACCCAUGUGGAAUAAAUAACGGACAGGAUAUCGAAUAUAGGAUAUACGAGAAGGGUUGAUUGGUG (Eterna round: R96, puzzle: Same State NG 3)
- apparent KD of MS2 coat protein [1]: 53.9 nM

Sequence: GGUGGGUUACUACCAACACAUGAGGAUCACCCAUGUUUUGGGAAGGAUAUGGUACCUAUUUGGUACCAGAAGGUCCGGUUGGUG [salish99_SSNG3_r04_704] (Eterna round: R96, puzzle: Same State NG 3)
- apparent KD of MS2 coat protein (input ligand: FMN 200 uM): 47.8 nM
- apparent KD of MS2 coat protein [1]: 100 nM
- apparent KD of MS2 coat protein (input ligand: none): 100 nM

Sequence: ACAUGAGGAUCACCCAUGUAUGCUCAGGAAACUGUGCAGCAUGAGGAUAUGGAUCCUAAUUGGAUCCAGAAGGCGUGAAUUAUU [Fiskers NG3ss - 25] (Eterna round: R96, puzzle: Same State NG 3)
- apparent KD of MS2 coat protein (input ligand: FMN 200 uM): 507 nM
- apparent KD of MS2 coat protein [1]: 692 nM
- apparent KD of MS2 coat protein (input ligand: none): 2520 nM

Sequence: UUUACAUUACGAGGAUAUCAUUUAUUUCAUGUUUGAGAAGGCGUUUUUUUUAUUACCUUACAUGAGGAUCACCCAUGUUUCUUU [JR_SSNG1_Sub043] (Eterna round: R96, puzzle: Same State NG 1)
- apparent KD of MS2 coat protein [1]: 26.2 nM

Sequence: GCCGCGUUUCGCGCCUACAUGAGGAUCACCCAUGUUUGUUGGCAGGAUAUCGUCCGCUCUGCGGGCGAGAAGGGCUGUUGUGGU [salish99_SSNG3_R04_025] (Eterna round: R96, puzzle: Same State NG 3)
- apparent KD of MS2 coat protein (input ligand: FMN 200 uM): 38.4 nM
- apparent KD of MS2 coat protein [1]: 18 nM
- apparent KD of MS2 coat protein (input ligand: none): 25.4 nM

Sequence: GCGAGCGUACUUGCUACAUGAGGAUCACCCAUGUUUUAUGGACAGGAUAUGGUACCGUUUCGGUACCAGAAGGGUCCACAUGUA [JL SSNG3 3.84] (Eterna round: R96, puzzle: Same State NG 3)
- apparent KD of MS2 coat protein (input ligand: FMN 200 uM): 130 nM
- apparent KD of MS2 coat protein [1]: 579 nM
- apparent KD of MS2 coat protein (input ligand: none): 453 nM

Sequence: AGAGGAGGCGCAGGAUAUACGACGGAGGACGAGGUAGAAGGGUGCAUGCGAUAACAUGAGGAUCACCCAUGUACCGCGCGACGA [AK SSNG1-V2-17.1] (Eterna round: R96, puzzle: Same State NG 1)
- apparent KD of MS2 coat protein (input ligand: FMN 200 uM): 122 nM
- apparent KD of MS2 coat protein [1]: 24.9 nM
- apparent KD of MS2 coat protein (input ligand: none): 45.6 nM

Sequence: CGAUGAUACUUAGGAAAGAGAGUAGAGGAACAUGAGGAUCACCCAUGUAUGAGCUUUUUGCUCGUCAUGAACAGGAA [JR_SHM208a_Sub008] (puzzle: Sensor for hsa-mir-208a)
- apparent KD of MS2 coat protein [2]: 88.6 nM
- apparent KD of MS2 coat protein [3]: 62.4 nM
- apparent KD of MS2 coat protein [4]: 168 nM

Sequence: GAGCCAGUCCGAGGAUAUUCAUAUUAACAUGAGGAUCACCCAUGUAGGCUCAGAAAGGAGCCUUGGGAGAAGGCGGACUGGCUC [Xeonanisa<<2] (Eterna round: R96, puzzle: Same State NG 2)
- apparent KD of MS2 coat protein (input ligand: FMN 200 uM): 14.9 nM
- apparent KD of MS2 coat protein [1]: 114 nM
- apparent KD of MS2 coat protein (input ligand: none): 251 nM

Sequence: AGUCCAGCAUGAGCUGGACAAAAGCAUGUACAUGAGGAUCACCCAUGUCAUGUACAAGCUUUUUGCUCGUCUUAAAA [Mat - hsa-mir-208a - Mod of JL - D1] (puzzle: Sensor for hsa-mir-208a)
- apparent KD of MS2 coat protein [2]: 512 nM
- apparent KD of MS2 coat protein [3]: 16.7 nM
- apparent KD of MS2 coat protein [4]: 627 nM

Sequence: GGAGCCAAGGCAGGAUAUUCAUAUUAAAACAUGAGGAUCACCCAUGUAAAGGCCAGAAGGCCUUGGGAGAAGGGCCAUGGCUCG [Xeonanis - 13 mod1] (Eterna round: R96, puzzle: Same State NG 2)
- apparent KD of MS2 coat protein (input ligand: FMN 200 uM): 19.9 nM
- apparent KD of MS2 coat protein [1]: 37.6 nM
- apparent KD of MS2 coat protein (input ligand: none): 49 nM

Sequence: GCCAACUAAUGAGGAUAUGGCACCUUAUUGGUGCCAGAAGGCAUGUCAAUUGACAUGAGGAUCACCCAUGUAUUAUAGUUGGCG [salish99_SSNG1_r04_601] (Eterna round: R96, puzzle: Same State NG 1)
- apparent KD of MS2 coat protein [1]: 438 nM

Sequence: ACCCAAAGUAUAUGGGAGCAAGCUUUUUAACAUGAGGAUCACCCAUGUACUCGUCUUAUAAGCAGUCGAAAGACUGC [Sensor 100 - 4] (puzzle: Sensor for hsa-mir-208a)
- apparent KD of MS2 coat protein [2]: 612 nM
- apparent KD of MS2 coat protein [3]: 12.4 nM
- apparent KD of MS2 coat protein [4]: 814 nM

Sequence: AUUAAUAAUCUAGGAUAUCACGUCGAUUAGACGUGAGAAGGAGAUCAUAACAUGAGGAUCACCCAUGUAUUACAUGAAGUUAAU [SSNG1/7-B2] (Eterna round: R96, puzzle: Same State NG 1)
- apparent KD of MS2 coat protein (input ligand: FMN 200 uM): 27.5 nM
- apparent KD of MS2 coat protein [1]: 28.8 nM
- apparent KD of MS2 coat protein (input ligand: none): 38.1 nM

Sequence: AGAUGUUAAUCAGGAUAUGGGCACAUGAGGAUCACCCAUGUAAAUUCGAUACUAUGUGGUCACGUCUAGAAGGGAUGGCUAACA [SameState NG2 #82] (Eterna round: R96, puzzle: Same State NG 2)
- apparent KD of MS2 coat protein (input ligand: FMN 200 uM): 189 nM
- apparent KD of MS2 coat protein [1]: 158 nM
- apparent KD of MS2 coat protein (input ligand: none): 250 nM

Sequence: UGUUAGUAGACAGGAUAUUGAAUGUUAAGUAUUAACAUGAGGAUCACCCAUGUAUUAGAUUGGUACAAGAAGGGUCAAGUAAGU [JR_SSNG2_Sub011] (Eterna round: R96, puzzle: Same State NG 2)
- apparent KD of MS2 coat protein (input ligand: FMN 200 uM): 380 nM
- apparent KD of MS2 coat protein [1]: 540 nM
- apparent KD of MS2 coat protein (input ligand: none): 247 nM

Sequence: GUGGUCAGACAUGAGGAUCACCCAUGUGGAAUAAAUAAGGAAUAGGAUAUGGAAUAUAGGAUAUACCAGAAGGGUUGGUUGGUG (Eterna round: R96, puzzle: Same State NG 3)
- apparent KD of MS2 coat protein [1]: 73.4 nM

Sequence: AGUCCAGCAUGAGCUGGACAAAAGCAUGUACAUGAGGAUCACCCAUGUUCAUGUACAAGCUUUUUGCUCGUCUUAAG [Mat - hsa-mir-208a - Mod of JL - 63] (puzzle: Sensor for hsa-mir-208a)
- apparent KD of MS2 coat protein [2]: 568 nM
- apparent KD of MS2 coat protein [3]: 18 nM
- apparent KD of MS2 coat protein [4]: 802 nM

Sequence: GGCUAUCGGCGUACCGAUAGCUGGUAUGUACAUGAGGAUCACCCAUGUCAUGUACAGGCUUGUUGCUCGUCUUAUUG [JL-shm-2.38 JL mod] (puzzle: Sensor for hsa-mir-208a)
- apparent KD of MS2 coat protein [2]: 144 nM
- apparent KD of MS2 coat protein [3]: 33 nM
- apparent KD of MS2 coat protein [4]: 165 nM

Sequence: GUCAGGCAAGCUUUUUUCUCGUAGUGUAAACAUGAGGAUCACCCAUGUGCUCGCCCUGGAUCUUUGGAUCCCAGAAA [Anedraus] (puzzle: Sensor for hsa-mir-208a)
- apparent KD of MS2 coat protein [2]: 40.2 nM
- apparent KD of MS2 coat protein [3]: 21 nM
- apparent KD of MS2 coat protein [4]: 41.9 nM

Sequence: AGUAGUUUAACAUGAGGAUCACCCAUGUAUCUAUCUGUAACCUAGGAUAUGGACGUUGUAUUUAACCAGAAGGAGGAUCGUUUA [JR_SSNG3_Sub046] (Eterna round: R96, puzzle: Same State NG 3)
- apparent KD of MS2 coat protein [1]: 22.7 nM

Sequence: UGUCCAGCCUGAGCUGGACAAAAGCAUGUACAUGAGGAUCACCCAUGUUCAUGUACAAGCUUUUUGCUCGUCUUGCA [salish99_208a_r3_109x] (puzzle: Sensor for hsa-mir-208a)
- apparent KD of MS2 coat protein [2]: 637 nM
- apparent KD of MS2 coat protein [3]: 14.5 nM
- apparent KD of MS2 coat protein [4]: 492 nM

Sequence: GGUGGGUUGCUACCAACACAUGAGGAUCACCCAUGUUUUGGGAAGGAUAUGGUACCUAUUUGGUACCAGAAGGUCCCGUUGGUG [salish99_SSNG3_r04_706] (Eterna round: R96, puzzle: Same State NG 3)
- apparent KD of MS2 coat protein (input ligand: FMN 200 uM): 37.6 nM
- apparent KD of MS2 coat protein [1]: 40.4 nM
- apparent KD of MS2 coat protein (input ligand: none): 63.6 nM

Sequence: GCUGGAAACCACAUGAGGAUCACCCAUGUUCCGGAAACGGCGCAGGAUAUCUGUCCGAAAAGGUCAGAGAAGGGUGGAACCAGC [Fiskers NG3ss - 81] (Eterna round: R96, puzzle: Same State NG 3)
- apparent KD of MS2 coat protein (input ligand: FMN 200 uM): 232 nM
- apparent KD of MS2 coat protein [1]: 136 nM
- apparent KD of MS2 coat protein (input ligand: none): 164 nM

Sequence: GUGGUCAGACAUGAGGAUCACCCAUGUGGAAUAAAUAAGGUCAAGGAUAUUCAAUAUAGGAUAUAGAAGAAGGUGAGGUUGGUG (Eterna round: R96, puzzle: Same State NG 3)
- apparent KD of MS2 coat protein [1]: 108 nM

Sequence: UACAAUCUAUCUCAGGAUAUCAUGUCAAAGACAUGAGGAUCACCCAUGUACCAGGAAACUGGUUAUGAGAAGGGAGAUAGAUUGA [Mat - Same State 2 - Mod - D25] (puzzle: Same State 2)
- apparent KD of MS2 coat protein [2]: 119 nM
- apparent KD of MS2 coat protein [3]: 59.1 nM
- apparent KD of MS2 coat protein [4]: 390 nM

Sequence: AUCCGGAAGCGAGGAUAUGCAGAGGAUCACCCUGCAGAAGGCGCGAUCGCGAGGAUAUGCAGAGGAUCACCCUGCAGAAGGCGC [pwkr ssNG DX.31] (Eterna round: R96, puzzle: Same State NG 1)
- apparent KD of MS2 coat protein (input ligand: FMN 200 uM): 15.5 nM
- apparent KD of MS2 coat protein [1]: 20.3 nM
- apparent KD of MS2 coat protein (input ligand: none): 25.1 nM

Sequence: GCAGGACAUGAGGAUCACCCAUGUCUCAAAUAUUGAGGAUAUGGACACGGUAUAUCCGAACCAGAAGGCAACCUGC [SS1 Teenbexe 20] (puzzle: Same State 1)
- apparent KD of MS2 coat protein [3]: 47.3 nM

Sequence: AGGAAACAUGAGGAUCACCCAUGUAUCGAGCCGCGAGGAUAUGGGUAUCAAAGGCGAGGAUCAGAAGGUGCAGGCG [Eseddierve] (puzzle: Same State 1)
- apparent KD of MS2 coat protein [2]: 235 nM
- apparent KD of MS2 coat protein [3]: 54.9 nM
- apparent KD of MS2 coat protein [4]: 153 nM

Sequence: AUGAAGAAUUAAGGAUAUUGAUUACAUAUGUUUAACAUGAGGAUCACCCAUGUGGGUUGCGGUAUCGAGAAGGUAAAUUACUAG [JL SSNG2 1.48] (Eterna round: R96, puzzle: Same State NG 2)
- apparent KD of MS2 coat protein (input ligand: FMN 200 uM): 150 nM
- apparent KD of MS2 coat protein [1]: 99.6 nM
- apparent KD of MS2 coat protein (input ligand: none): 128 nM

Sequence: GCUAGAAAUAAAGCCAACAUGAGGAUCACCCAUGUAUGUUGGUAGGAUAUCGUUUGCAAAGCAAACGAGAAGGGCCAAACUAGC [Mat - Same State NG 3 - JL Mod - D20] (Eterna round: R96, puzzle: Same State NG 3)
- apparent KD of MS2 coat protein (input ligand: FMN 200 uM): 86.5 nM
- apparent KD of MS2 coat protein [1]: 104 nM
- apparent KD of MS2 coat protein (input ligand: none): 137 nM
